Assay results reported in publication PMC4066749, “A sequence-based approach for prediction of CsrA/RsmA targets in bacteria with experimental validation in Pseudomonas aeruginosa”.

Columns and labels:
RsmA [1] = target: T1, RsmA (UniProt O69078 1-61); experiment: ITC; 298 K; 1:1 single-site fit; 50 mM NaCl, 25 mM potassium phosphate pH 7.0; ITC at 298 K (125 uM RNA into 5-10 uM protein); SEC on Superdex 75 with 50 uM protein and 25 uM RNA, temperature not stated; settings: protein: recombinant; tags: His tag; chain copies: 2; hairpin
RsmA-R44A [2] = target: T2, RsmA-R44A (UniProt O69078 1-61, R44A); experiment: analytical SEC; binding virtually eliminated; 50 uM protein, 25 uM RNA; 50 mM NaCl, 25 mM potassium phosphate pH 7.0; ITC at 298 K (125 uM RNA into 5-10 uM protein); SEC on Superdex 75 with 50 uM protein and 25 uM RNA, temperature not stated; settings: protein: recombinant; chain copies: 2; hairpin
RsmA [3] = target: T1, RsmA; experiment: analytical SEC; 50 uM protein, 25 uM RNA; settings: protein: recombinant; tags: His tag; chain copies: 2; unstructured
RsmA-R44A [4] = target: T2, RsmA-R44A; experiment: analytical SEC; no significant interaction, RNA largely unbound; settings: protein: recombinant; chain copies: 2; unstructured

Binder	Kd (RsmA [1]) [nM]	binding result (RsmA-R44A [2])	binding result (RsmA [3])	binding result (RsmA-R44A [4])
CCCCGAAGGAUCGGGG (structured_RNA) [RsmZ-2 (RsmZ stem-loop 2)]	276 ± 25	no binding	–	–
GAAGAGGAGCUUUCAUG (ssRNA) [algU RBS RNA]	–	–	binds	no binding
